Reference: patent publication US11939377B2, “Affinity matured CD22-specific monoclonal antibody and uses thereof” (The U.S.A., as represented by the Secretary, Department of …, priority 2018, dated 2024)

Legend:
[1] = test system: CD22 expression on ALL and DLBCL cell lines (Nalm6, Kopn8, SEM, Pfeiffer, Toledo, PDX); test: CD22 expression on leukemia/lymphoma cells by flow cytometry after drug exposure in vitro; type: cell-based, human; conditions: Enzastaurin 10 μM, Staurosporine 100 μM, 24 hours
Method: FIGS. 3A-3D: (FIG. 3A) Four cell lines (Nalm6, Kopn8, Pfieffer and Toldeo) were co-incubated with 1 ng/ml Bryostatin 1 for 24 hours and analyzed using flow cytometry one day after Bryostatin 1 exposure. Site density was analyzed using standardized Quantibrite-PE beads. (FIG. 3B) Cell lines were co-incubated with 1 ng/ml Bryostatin 1 for 24 hours, washed, and analyzed using flow cytometry at 1 and 7 days after Bryostatin 1 exposure. Fold change was calculated based on site density: (Cell line Bryostatin 1—Cell line DMSO)/Cell line DMSO. (FIG. 3C) NSG mice were injected with 1×10^6 GPF-positive Nalm6 leukemia cells on Day 0. Bryostatin 1 was administered at 0.8 μg/kg on Day 3. Mice were sacrificed 7 and 12 days after Bryostatin 1 injection and CD22 was evaluated by flow cytometry. (FIG. 3D) CD22-low relapse PDX cell line was cultured in vitro with 1 nmol/L Bryostatin 1 for 24 hours and measured for CD22 expression using CD22 antibody.
FIGS. 10A-10E: (FIG. 10A) Three cell lines (Toldeo, Kopn8 and Nalm6) were co-incubated with Bryostatin 1 at varying concentrations for 24 hours. At 24 hours, cells were collected for protein kinase C (PKC)-βII isoform analysis by western blot. (FIG. 10B) KOPN8 or SEM cell lines were exposed to Bryostatin 1 for 16, 24, 48 or 72 hours. RNA was extracted from cells and analyzed using RNAseq. (FIG. 10C) Immunofluorescent staining of CD22 was conducted through permeabilization followed by staining of CD22. (FIG. 10D) Four cell lines were co-incubated with various combinations of Enzastaurin (10 μM), Staurosporine (100 μM), or Bryostatin 1 (1 nM) for 24 hours. CD22 expression was assessed using flow cytometry. MFI fold change=CD22 MFI^Bryostatin1/CD22 MFI^DMSO. (FIG. 10E) Cell lines were co-incubated with 1 nM Bryostatin 1 for 24 hours and measured for CD22 expression using CD22-PE antibody. MFI fold change=CD22 MFI^Bryostatin 1/CD22 MFI^DMSO.
FIG. 11: CD22^lo or parental Nalm6 cell lines were exposed to 1 ng/ml Bryostatin 1 for 24 hours. CD22 expression was assessed using flow cytometry.
For all in vitro experiments and tumor/CAR pretreatment prior to intravenous injection, Bryostatin 1 was administered to cells at a concentration of 1 ng/mL. Dimethyl sulfoxide (DMSO) vehicle control was administered to control-treated cells at an equal volume. Prior to co-culture or intravenous injection, Bryostatin 1- and DMSO-treated cells were washed 3x in sterile PBS. For all in vivo experiments, Bryostatin 1 was diluted in PBS and administered via intraperitoneal injection at a dose of 40 μg/kg (1 μg/25 g mouse). For control-treated groups, an equal volume of DMSO was diluted in PBS and administered in the same manner
FACS analysis of cell surface CAR and protein expression was performed using an LSR II Fortessa flow cytometer (BD Biosciences). CD22-CAR was detected by incubation with 22-Fc (R&D Systems), followed by incubation with human IgG-specific PE-F(ab)2 (Thermo Fisher Scientific). The following human monoclonal antibodies were used for detection of cell surface proteins: CD22-APC, CD22-PE, CD19-Pacific Blue, CD45-PerCP/Cy5.5, CD3-APC/Cy7, PD1-PE/Cy7, LAG3-APC, TIM3-Pacific Blue, CD8-APC, CD8-PE/Cy7, CD45RA-APC, CD45RO-PE/Cy7, CCR7-Pacific Blue, CD4-Pacific Blue, CD69-APC (all from BioLegend). CD22 site density was determined using QuantiBrite-PE beads (BD Biosciences) using methods previously described (Jasper et al., Cytometry B Clin Cytom 80(2):83-90, 2011). Dead cells were identified using eFluor 506 fixable viability dye (Thermo Fisher Scientific). GFP-expressing leukemia cells were identified through the FITC channel.

[2] = target: CD22 extracellular domain (ECD) (Homo sapiens, UniProt P20273); test: BIAcore surface plasmon resonance of scFv binding to immobilized CD22 ECD-Fc
Method: FIGS. 13A-13F: (FIG. 13A) BIAcore analysis was used to evaluate association and dissociation curves of various scFvs. […] (FIG. 13B) CD22^V1 or CD22 CART were co-cultured with CD22^neg or CD22^lo leukemia and evaluated at 24 hours for PD1 expression through flow cytometry on a Fortessa flow machine. (FIGS. 13C-13F) Mice were injected with CD22^lo or Nalm6 leukemia on Day 0. […] Bone marrow cells were stained for flow cytometry and analyzed on Fortessa flow machine. Statistics were calculated using unpaired t-test (** p<0.0021).
Purified CD22 ECD-Fc fusion protein was diluted in 10 mM acetic acid buffer, pH 5.0, immobilized on a CMS biosensor chip for 1400 RU using an amine coupling kit. The running buffer was HBS-EP (10 mM HEPES, pH 7.4, 150 mM NaCl, 3 mM EDTA, 0.05% surfactant P20). The scFvs diluted in running buffer were allowed to flow through the cells at concentrations 0.32, 1.6, 8, 40 and 200 nM. After a 10-minute of dissociation, the chip was regenerated with 10 mM acetic acid, pH 4.0, 0.5 M NaCl. The data were fitted with 1:1 binding model and the dissociation rate constant was estimated with the BIAevaluation software.

Molecule | upregulation of CD22 [1] | affinity relative to original scFv m971 ([2]; as measured by BIAcore) | Kd ([2]; scFv, bound from instrument limit kd) [nM] | Kd ([2]; scFv, bound from instrument limit kd 1.0×10^−5 / 5.6×10^5) [nM] | calculated dissociation rate constant kd ([2]; scFv, lower than the kd measurable by BIAcore X-100 (1.0×10^−5 l/s)) [L/s]
Cn1cc(C2=C(c3cn(C4CCN(Cc5ccccn5)CC4)c4ccccc34)C(=O)NC2=O)c2ccccc21 [Enzastaurin] | neither the PKCβII inhibitor, Enzastaurin, nor a broad PKC inhibitor, Staurosporine, was able to upregulate CD22 | – | – | – | –
CN[C@@H]1C[C@H]2O[C@@](C)([C@@H]1OC)n1c3ccccc3c3c4c(c5c6ccccc6n2c5c31)C(=O)NC4 [Staurosporine] | neither the PKCβII inhibitor, Enzastaurin, nor a broad PKC inhibitor, Staurosporine, was able to upregulate CD22 | – | – | – | –
m971-L7: affinity matured human monoclonal antibody specific for CD22; VH SEQ ID NO: 4, VL SEQ ID NO: 5, scFv SEQ ID NO: 6 (antibody, V domains shown) VH: QVQLQQSGPGMVKPSQTLSLTCAISGDSVSSNSVAWNWIRQSPSRGLEWLGRTYYRSTWYNDYAVSMKSRITINPDTNKNQFSLQLNSVTPEDTAVYYCAREVTGDLEDAFDIWGQGTMVTVSS VL: DIQMIQSPSSLSASVGDRVTITCRASQTIWSYLNWYRQRPGEAPNLLIYAASSLQSGVPSRFSGRGSGTDFTLTISSLQAEDFATYYCQQSYSIPQTFGQGTKLEIK | – | more than 1000 fold | < 0.018 | < 0.018 | 1.1e-06
